Test results: the DeepSol protein solubility set

Test: soluble on expression in E. coli; label from the status in PepcDB or PDB records

| Sequence | soluble on expression in E. coli |
| --- | --- |
| MGSDKIHHHHHHMVDSLKKPGFEEIRPGVKVPAKETLLTPRFYTTDFDEMARMDISVNEDELLAILEEFRTDYNRHHFVRDAEFEKSWDHIDGDTRRLFVEFLERSCTAEFSGFLLYKELGRRLKDKSPVLAECFNLMSRDEARHAGFLNKAMSDFNLSLDLGFLTKSRNYTFFKPKFIFYATYLSEKIGYWRYITIYRHLEAHPEDRIYPIFRFFENWCQDENRHGDFFDAIMKSQPQMLNDWKAKLWSRFFLLSVFATMYLNDIQRKDFYASIGLDARDYDIYVIKKTNETAGRVFPVILDVDSPEFYERLDICVENSEKLSAIASSNTPKFLQFFQKLPVLASTGWQLLRLYLMKPIDAVSAQGAAR | not soluble |
| MIVLGLEGTAHTISCGIIDESRILAMESSMYRPKTGGIRPLDAAVHHSEVIDTVISRALEKAKISIHDIDLIGFSMGPGLAPSLRVTATAARTISVLTGKPIIGVNHPLGHIEIGRRVTGAIDPVMLYVSGGNTQVIAHVNGRYRVLGETLDIGIGNMIDKFAREAGIPFPGGPEIEKLAMKGTKLLDLPYSVKGMDTAFSGILTAALQYLKTGQAIEDISYSIQETAFAMLVEVLERALYVSGKDEILMAGGVALNRRLRDMVTNMAREAGIRSYLTDREYCMDNGIMIAQAALLMYKSGVRMSVEETAVNPRFRIDEVDAPWITDASRKDYGKAGAESRIEEVSFHGRPAIRKVRISKSYRNSDLDKKIRYERMRNEFTILRKLKEAGVNSPVVYDFDPFSMSITMQKIPGRMMSAELNEGRTDFLNELGIMIAKMHRAGIAHGDLTVNNIIVNDSVFIIDPSMGKVNAEIEDMAVDIYALEDSIKGLGLDSGSVIGQMLKSYRNNFNLADDVLETVSAIRRRHRYV | soluble |
| MGSDKIHHHHHHMTKNNIAVKVDHVSKYFKLPVESTQSLRTALVNRFKGIKGYKKQHVLRDIDFEVEKGDFFGIVGRNGSGKSTLLKIISQIYVPEQGKVTVDGKLVSFIELGVGFNPELTGRENVYMNGAMLGFTTEEVDTMYQDIVDFAELQDFMNQKLKNYSSGMQVRLAFSVAIKAQGDVLILDEVLAVGDEAFQRKCNDYFLERKNSGKTTILVTHDMAAVKKYCNKAVLIDDGLIKAIGEPFDVANQYSLDNTDQIVEDKQEEEAAVQEEEQIVVDNLEVKLLSANRMTPRDSIRFEISYNVLADVGTYIALSLTDVDRNIWIYNDNSLDYLSSGSGKKRVFYECHLKSLNDIKLKLEVTVRDKQGQMLAFSSATNTPIISINRDDLEGDDKSAMDSASGLIQRNGQWQFS | not soluble |
| VLRSKSLCHDEIENLLDSDHRELIGDYSKAFLLQTVDGKHQDLKYISPETMVALLTGKFSNIVDKFVIVDCRYPYEYEGGHIKTAVNLPLERDAESFLLKSPIAPCSLDKRVILIFHCEFSSERGPRMCRFIRERDRAVNDYPSLYYPEMYILKGGYKEFFPQHPNFCEPQDYRPMNHEAFKDELKTFRLKTRSWAGERSRRELCSRLQDQ | soluble |
| GPGSMQFTVEQIRSVRNNYLEPPYPGFSLDEVVRRRRLTQTKLVRGENAWVAKGTAQTTEEWVQRLLHGTLNKLTEENKDIMIDKLLTKELFATEDIMNMVVNIIFKKALDEPENSKLYAGVCHSLALYEAKVLRDGHKGERPQSQLRDAIISTAQHEFRTLSKELSKMEDKSEEELEYERSNVMRRKRSNMRFIGELYLCTALTHSTMFTVMDLTMRCSDKTGFPSSENIELLAALLNTIGDRLDKNHKKTLDPYFTSLENFNKKSDCPYPPRIRFKIMDLLDLRKRGWGLKPKPVKAALPPSHGKDKKYATAPPPKKGGRDQGSAAAASKSWRDAATTKTGTAAAPAPSADKGLNGRGTSSAAPAANTAALSSSSASTAAATAPAGASFRDEASPQVPLVKFELRVASMFQEWVADRTNDVILHWVDQFNTCDRFFESESELCVAVAQEVIHSACTTTRKDAQREAFSFLVVGLYMIDTEVFDGFASALASAIEDGLLEDVPKFGERFMSMLRLTSTEQETRADVYFDAANVLRLTYNRLESPDDSAVDTLMSFWDRVPLPSTDEENMIRMDLDVVYSLCNPEGVQDGLEKLLSRIIHSMLQMQLMDAEVLDEFLCLDVEDGLCAKVIADYKERFPK | soluble |
| MSLDVTDAQAIADHWGRGDVFGLIVAALNQMAKPLDGLTVEELAPVDHFHSRGFPATVEFADRLPINAGEQILDIGCGLGGPARYMAKRFQCRVSGIDITGPFVEAANRLTALLHMEQQVEIAQGNGQRLPYPDSCFDGAYTQDVTMNVAERAGFFAEAYRVLKPGAFFALSEHGLGPQGKPHYPVPWSDDGTGAYLTAPAETRAILERTGFEAITVEDTGAKCVAGYGKVIERAEKGALPPLGLHLFMGESMVEKMRNAARNIEEGRTHPIQLICRKEGHHHHHH | soluble |
| MRADGFVPLQALLQLPQFHSFSIEDVQLVVNTNEKQRFTLQPGEPSTGLLIRANQGHSLQVPELELTPLETPQALPLTLVHGTFWKHWPSILLKGLSRQGRTHIHLASGLPGDPGVISGIRPNCEVAVFIDGPLALTDGIPFFCSANGVILTPGNAEGFLLPKYFKEALQLRPTRKPLSLAGDKETETQSGPKLSSRGGRRKIQQ | soluble |
| MGSSHHHHHHSSGLVPRGSHMHSVVQSVTDRIIARSKASREAYLAALNDARNHGVHRSSLSCGNLAHGFAACNPDDKNALRQLTKANIGIITAFNDMLSAHQPYETYPDLLKKACQEVGSVAQVAGGVPAMCDGVTQGQPGMELSLLSREVIAMATAVGLSHNMFDGALLLGICDKIVPGLLIGALSFGHLPMLFVPAGPMKSGIPNKEKARIRQQFAQGKVDRAQLLEAEAQSYHSAGTCTFYGTANSNQLMLEVMGLQLPGSSFVNPDDPLREALNKMAAKQVCRLTELGTQYSPIGEVVNEKSIVNGIVALLATGGSTNLTMHIVAAARAAGIIVNWDDFSELSDAVPLLARVYPNGHADINHFHAAGGMAFLIKELLDAGLLHEDVNTVAGYGLRRYTQEPKLLDGELRWVDGPTVSLDTEVLTSVATPFQNNGGLKLLKGNLGRAVIKVSAVQPQHRVVEAPAVVIDDQNKLDALFKSGALDRDCVVVVKGQGPKANGMPELHKLTPLLGSLQDKGFKVALMTDGRMSGASGKVPAAIHLTPEAIDGGLIAKVQDGDLIRVDALTGELSLLVSDTELATRTATEIDLRHSRYGMGRELFGVLRSNLSSPETGARSTSAIDELY | soluble |
| TEAAAQPHALPADAPDIAPERDLLSKFDGLIAERQKLLDSGVTDPFAIVMEQVKSPTEAVIRGKDTILLGTYNYMGMTFDPDVIAAGKEALEKFGSGTCGSRMLNGTFHDHMEVEQALRDFYGTTGAIVFSTGYMANLGIISTLAGKGEYVILDADSHASIYDGCQQGNAEIVRFRHNSVEDLDKRLGRLPKEPAKLVVLEGVYSMLGDIAPLKEMVAVAKKHGAMVLVDEAHSMGFFGPNGRGVYEAQGLEGQIDFVVGTFSKSVGTVGGFVVSNHPKFEAVRLACRPYIFTASLPPSVVATATTSIRKLMTAHEKRERLWSNARALHGGLKAMGFRLGTETCDSAIVAVMLEDQEQAAMMWQALLDGGLYVNMARPPATPAGTFLLRCSICAEHTPAQIQTVLGMFQAAGRAVGVIGLEHHHHHH | soluble |
| MGSDKIHHHHHHMTAQNGQDVWHEDILDDSAIAVLSYPIGEMQRDQLHSHGYHQIAMCEQPGATLLLGSQVVSIPWNGALLVPSGTDHALTSETRCVIRCIYFKAALPSTSIGSLFLNRLTKELIKEISTSYVTERSRRLMEACLYDQIGQLLWSSGSGMMPPSRSLRVICKHIFDTPEDDTPVATLAKDAGLSERSLRRLARDELGCTISQIRTRCRIYKATQLLQAGVPVKLIAADVGYQSNSAFFSAFREIMGMSPARFQAECAASRSLSHLRLK | not soluble |
| MKRVGKQTWVFDDGVYIQAAAAAVGPLEADGPLGSYFDVCHRDLYCGEATWELAERRLMREAVDCCLQKAGVSAEEVDLLLAGDLLNQNATSNYVARELPIPFLCLFGACSTSMQTLAAAAAFVAGGLADRALAATSSHNATAERQFRYPTELGVQKPKTATFTVTGAGAALVGRAPGRWRVRAATIGKVVDAGLKNPLDMGAAMAPAAADTIEQHFRDLGVSPGDYDLIVTGDLSRVGSVIVRELLAESGYDVTDVYNDCGLMIYRPDQKVFAGGSGCACSAVVTYGYLLQELARGTFRRLFVVATGALLSQTMVQQKQSIPAIAHGVVIEAAGQEPDLPP | not soluble |
| MKSMSEYLNLLKEAIQNVVDGGWHETKRKGNTGIGKTFEDLLEKEEDNLDAPDFHDIEIKTHETAAKSLLTLFTKSPTNPRGANTMLRNRYGKKDEYGNNILHQTVSGNRKTNSNSYNYDFKIDIDWESQVVRLEVFDKQDIMIDNSVYWSFDSLQNQLDKKLKYIAVISAESKIENEKKYYKYNSANLFTDLTVQSLCRGIENGDIKVDIRIGAYHSGKKKGKTHDHGTAFRINMEKLLEYGEVKVIV | soluble |
| LSESDRGASCAPIGAIADAVKSGKVGSCVNNEYDVPGGKVEDFVSGRAYWSPSTGAHALYGRINARYSEMGGPQSWLGFPISSEFAIKDNARVVQFQNGNIYWSPQRGAIAVPKDIVDKWGEQQWENGFLGFPVAEAKEVAGGFIQEFEGGLVVRTKDNKNQWLRGEIAKKYREMKTAESELGFPVSDEIKINGGAFQQFEHGNIYWSAATGAHFIRKGDIFNTWGVKKWEQGELGFPVTDHTQIPAGGEEITFQHGKISQVNGVIREERR | not soluble |
| METNRPSPDALLVNLQEEADSSVGKLKIYFGFAAGVGKTYAMLSDAKDQLAAGVDVVAGYIEPHAREETLRMLEGIPIIPPKAINHKNIALKEFDLDEALKRKPELILVDELAHTNASGVRNKKRFQDVEELLQAGIDVYTTVNVQHIESLNDIVEGITKVAVRETIPDYVFDEADRVKLIDIEPDELLKRLEQGKIYQPARAKTAMQNFFTRENLKLLREIAMRKAADRI | not soluble |
| QTGVQTNTPFGSGEDSIRCRQNISLFTSYAKTGNYKDAYDFWEKAYEECPASTKNIYIYGVKISEWRLQNEQDPAKRQQIIDKILKLYDDRVKYFGEDPKYGTDYIMASKISDYMQYMGDKTDYDKVYEWIKPTIDQHGENATPRALFYYAYSSLNKAIRNEAWHETYIKDYTFASQAMEKQLEVADEKGKEFIQPLKTQIDELFAQSGLADCNTLVKMYGDKLEENKTDTTFLKNMLGMFHASDCETHPLYFQANK | not soluble |
| MGSDKIHHHHHHAQRINHVQEAIANYDYEAALTLIAKEKPTIPLLLQKGKAQRGLGMNTEALSTYQEIIANDTANTRAYIEAAECCRSLAKYQQALKYYEQALDLNPENKYVRIQYIGLLLSLQKFQDALGESSLMTEKDSSAIALHLQAQSFEGMGELLPATGCYYNIQEKYPDDYLAAAKLAALNIAGSYFNEAIEATEKYRQTDTTNIAVNRQNALAYCLNKDYPTAIQRYEYLVSQGDSSFHTCYYLGISYYAEEKYYEAHDFLEAARKHDPENVNLLYYLGRACAKTSWKKLGVEYLEKALDLTIPKDSNMVRLYIGMTDCYKMAQMPKEQIESIRERYRKYDKQNHKLLYDMAFIYFYSLKDKKNTERCLEAFLKTRPKEDKEEEAKLNERGELVLGTKNYYNAAANWLKDIQSKQKIEDFFLGGNVPAQKPE | not soluble |
| MGSDKIHHHHHHMSIFFKPPIDIEILFDNEESRKHVDIATRSSNSSYKSMKESLPVYEDGESLGGIVTLRVRDSKKVDHLGIKVSVIGSIDMLKSHGSGNSSSKKVTSSTSSSSSNGSVDVRKNSVDQFLCQSYDLCPAGELQHSQSFPFLFRDLSKRYESYKGKNVDVAYYVKVTVMRKSTDISKIKRFWVYLYNSVTTAPNTLSANETKATTNDIAGGNYAADNASDNTQTKSTQGEAADVNQVLPISHSNNEPKPVRLDIGIENCLHIEFEYAKSQYSLKEVIVGRIYFLLTRLRIKHMELSLITRESSGLQTSNVMTDSTAIRYEIMDGSSVKGETIPIRLFLSGYDLTPNMSCNYFNVKNYLSLVIIDEDGRRYFKQSEITLYRTR | not soluble |
